Experimental data published in patent US20050112748A1 (published 2005).

Biological target: T1, N-terminal portion of N-WASP (1st to 275th amino acid residues) fused to the Gal4 activation domain (pACT2) (UniProt Q95107 1-275)
T1 construct: range 1-275; Yeast two-hybrid prey; also called CRIB-motif-containing N-terminal portion of N-WASP; N-WASP CRIB motif
Experiment: yeast two-hybrid, beta-galactosidase colony-lift filter assay
Description: The cDNAs encoding the wild-type, constitutively active, and dominant-negative mutants of Cdc42, Tc10, and RhoT were ligated to the Gal4 DNA-binding domain of the pGBT9 vector (Clontech). A cDNA fragment encoding the N-terminal portion of N-WASP (corresponding to 1st to 275th amino acid residues) (EMBO J. 15: 5326-5335 (1996), Nature 391: 93-96 (1998)) was fused to the Gal4 activation domain of pACT2 vector (Clontech) The yeast strain Y190 was sequentially transformed with the bait and prey plasmids. Double transformants were selected on plates of minimal synthetic dropout medium lacking leucine and tryptophan (SD/-Leu/-Trp). The activation of lacz reporter gene was analyzed by β-galactosidase colony-lift filter assay.
Cdc42 generates filopodia through binding to the CRIB motif (J. Biol. Chem. 270: 29071-29074 (1995)) of its target protein N-WASP, which activates Arp2/3-complex- and profilin-mediated actin polymerization (EMBO J. 15: 5326-5335 (1996), Nature 391: 93-96 (1998), Cell 97: 221-231 (1999)). To determine whether Tc10 and RhoT also bound to N-WASP, the yeast two-hybrid interaction assay was performed.

T1 sequence (Q95107 1-275 limits assumed): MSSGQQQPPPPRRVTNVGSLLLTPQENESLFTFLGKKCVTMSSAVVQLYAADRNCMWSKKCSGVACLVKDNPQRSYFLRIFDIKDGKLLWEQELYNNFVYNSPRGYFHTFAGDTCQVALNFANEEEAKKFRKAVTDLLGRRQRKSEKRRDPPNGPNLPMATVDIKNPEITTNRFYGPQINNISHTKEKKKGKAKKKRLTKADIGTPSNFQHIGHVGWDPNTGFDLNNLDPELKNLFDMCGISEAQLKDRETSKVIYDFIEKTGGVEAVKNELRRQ

binding result: no binding
B1: Dominant-negative mouse RhoT(T35N) fused to the Gal4 DNA-binding domain (pGBT9) (enzyme, not shown: small tags and cut ends)
chain: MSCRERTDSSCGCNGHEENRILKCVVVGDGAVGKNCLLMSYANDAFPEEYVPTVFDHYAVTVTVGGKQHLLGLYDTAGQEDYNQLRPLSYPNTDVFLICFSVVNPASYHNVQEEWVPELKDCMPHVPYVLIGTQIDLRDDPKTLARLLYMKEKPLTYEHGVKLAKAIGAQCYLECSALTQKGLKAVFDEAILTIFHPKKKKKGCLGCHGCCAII
notes: Yeast two-hybrid bait; also called RhoT(T3SN); RhoT DN
